Data as given in patent US20150344570A1 (published 2015).
Like-named read-outs stand apart in the source and are kept apart here.

T1: FcγRIIb extracellular domain with C-terminal His tag (human, UniProt P31994 43-217)
T1 construct: extracellular domain; Soluble receptor expressed in FreeStyle293 cells, used as analyte in Biacore; also called FcgRIIb; 2b; not shown: His tag attached to the C terminus
T1 sequence (looked up): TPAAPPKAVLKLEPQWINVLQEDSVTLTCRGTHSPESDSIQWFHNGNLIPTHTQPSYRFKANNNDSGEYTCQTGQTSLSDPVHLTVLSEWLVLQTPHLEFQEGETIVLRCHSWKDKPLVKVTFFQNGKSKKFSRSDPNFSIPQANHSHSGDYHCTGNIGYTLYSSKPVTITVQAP

T2: FcgRIIa R (FcγRIIa type R) extracellular domain with C-terminal His tag (human, UniProt P12318 34-217)
T2 construct: extracellular domain; also called FcγRIIa R; not shown: His tag attached to the C terminus
T2 sequence (looked up): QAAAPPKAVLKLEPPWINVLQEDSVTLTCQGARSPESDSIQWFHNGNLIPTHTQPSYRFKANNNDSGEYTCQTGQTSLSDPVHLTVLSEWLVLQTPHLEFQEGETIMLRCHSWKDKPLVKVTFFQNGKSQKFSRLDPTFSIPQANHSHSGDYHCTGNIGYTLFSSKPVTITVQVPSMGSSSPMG

T3: FcgRIIa H (FcγRIIa type H) extracellular domain with C-terminal His tag (human, UniProt P12318 34-217)
T3 construct: extracellular domain; also called FcγRIIa H; not shown: His tag attached to the C terminus
T3 sequence (looked up): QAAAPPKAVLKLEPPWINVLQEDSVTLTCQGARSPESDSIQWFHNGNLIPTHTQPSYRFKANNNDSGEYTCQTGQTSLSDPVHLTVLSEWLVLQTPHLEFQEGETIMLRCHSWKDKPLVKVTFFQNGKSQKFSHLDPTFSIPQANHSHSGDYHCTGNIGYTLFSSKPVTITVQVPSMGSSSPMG

T4: FcgRIIb (FcγRIIb) extracellular domain with C-terminal His tag (human, UniProt P31994 43-217)
T4 construct: extracellular domain; not shown: His tag attached to the C terminus
T4 sequence (looked up): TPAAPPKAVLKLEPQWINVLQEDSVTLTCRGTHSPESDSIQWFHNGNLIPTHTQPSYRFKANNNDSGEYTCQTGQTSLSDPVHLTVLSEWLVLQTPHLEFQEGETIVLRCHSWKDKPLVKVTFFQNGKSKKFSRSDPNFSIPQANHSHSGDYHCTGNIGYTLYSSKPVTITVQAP


Columns and labels:
[1] = target: T5, FcγRIIIa extracellular domain with C-terminal His tag (human, UniProt P08637 17-208); experiment: SPR (Biacore); He/Con_3a (FcγRIIIa) divided by He/Con_2b (FcγRIIb)
T5 construct: extracellular domain; also called FcgRIIIa; 3a; not shown: His tag attached to the C terminus

[2] = target: T1, FcγRIIb extracellular domain with …; experiment: SPR (Biacore T100), antibody captured on antigen peptide chip, FcγR as analyte
Procedure: (§1) Analysis of interaction between objective antibody and the FcγR was carried out using Biacore T100 (GE Healthcare). HBS-EP+ (GE Healthcare) was used as the running buffer, and the measurement temperature was set to 25° C. Chips produced by immobilizing the antigen peptide by the amine coupling method to a Series S Sencor Chip CM5 (GE Healthcare), or alternatively, chips produced by allowing preliminarily biotinylated antigen peptides to interact with and immobilize onto a Series S Sensor Chip SA (certified) (GE Healthcare) were used. Antibodies of interest were captured onto an antigen peptide-immobilized chip, and allowed to interact to each FcγR diluted with running buffer. To regenerate and repeatedly use the chip, the antibodies captured on the chip were washed off by reacting 10 mM glycine-HCl, pH 1.5.

[3] = target: T5, FcγRIIIa extracellular domain with …; experiment: as above
Procedure: as §1

[4] = target: T2, FcgRIIa R (FcγRIIa type R) …; experiment: SPR (Biacore); KD of H240-Kn061/H240-Hl071/L73-k0 divided by KD of the variant
Procedure: (§2) The antibodies were assessed for the binding to each FcgR. […] The resultant value was defined as relative KD, and used as an assessment indicator.
(§3) Analysis of interaction between objective antibody and the FcγR was carried out using Biacore T100 (GE Healthcare), Biacore T200, Biacore A100, and Biacore 4000. HBS-EP+ (GE Healthcare) was used as the running buffer, and the measurement temperature was set to 25° C. Chips produced by immobilizing the antigen peptide by the amine coupling method to a Series S sensor Chip CM5 (GE Healthcare), chips produced by allowing preliminarily biotinylated antigen peptides to interact with and immobilize onto a Series S Sensor Chip SA (certified) (GE Healthcare), chips produced by immobilizing Protein L (ACTIGEN, BioVision) to Series S Sencor Chip CM5 (GE Healthcare), or chips produced by immobilizing Protein A/G (Thermo Scientific) to Series S Sencor Chip CM5 (GE Healthcare) were used. Antibodies of interest were captured onto these chips, and allowed to interact to each FcγR diluted with running buffer.

[5] = target: T3, FcgRIIa H (FcγRIIa type H) …; experiment: as above
Procedure: as §2, §3

[6] = target: T4, FcgRIIb (FcγRIIb) extracellular domain …; experiment: as above
Procedure: as §2, §3

[7] = target: T6, FcgRIIIa F (FcγRIIIa type F) extracellular domain with C-terminal His tag (human, UniProt P08637 17-208); experiment: as above
T6 construct: extracellular domain; also called FcγRIIIa F; 3aF; not shown: His tag attached to the C terminus
Procedure: as §2, §3

[8] = target: T7, FcgRIIIa V (FcγRIIIa type V) extracellular domain with C-terminal His tag (human, UniProt P08637 17-208); experiment: as above
T7 construct: extracellular domain; also called FcγRIIIa V; not shown: His tag attached to the C terminus
Procedure: as §2, §3

[9] = target: T4, FcgRIIb (FcγRIIb) extracellular domain …; experiment: as above; remark: listed apart in the source
Procedure: as §2, §3

[10] = target: T6, FcgRIIIa F (FcγRIIIa type F) …; experiment: as above; remark: listed apart in the source
Procedure: as §2, §3

[11] = target: T7, FcgRIIIa V (FcγRIIIa type V) …; experiment: as above; remark: listed apart in the source
Procedure: as §2, §3

T5 sequence (P08637 17-208): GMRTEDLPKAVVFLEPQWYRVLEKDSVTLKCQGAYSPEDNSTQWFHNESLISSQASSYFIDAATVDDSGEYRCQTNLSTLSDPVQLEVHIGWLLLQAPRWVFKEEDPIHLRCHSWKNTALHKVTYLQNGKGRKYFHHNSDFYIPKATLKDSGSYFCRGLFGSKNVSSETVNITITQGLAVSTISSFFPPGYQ
T6 sequence (P08637 17-208): as above
T7 sequence (P08637 17-208 F176V limits assumed): as the sequence (P08637 17-208) above, with F160V counted along it

Binder | He_3a/2b (IIIa/IIb) [1] | He/Con_2b [2] | He/Con_3a [3] | relative KD [4] | relative KD [5] | relative KD [6] | relative KD [7] | relative KD [8] | relative KD [9] | relative KD [10] | relative KD [11]
GpH7-A5/GpH7-B3 variant H268_20W/GpL16-k0 (antibody, human IgG1, kappa, Heterodimerized antibody (He Ab) with the mutation in only one H chain; also called He Ab H268W) heavy 1: not shown heavy 2: not shown light: DIVMTQSPLSLPVTPGEPASISCQASESLVHSNRNTYLHWYLQKPGQSPQLLIYKVSNRFSGVPDRFSGSGSGTDFTLKISRVEAEDVGVYYCSQNTHVPPTFGQGTKVEIERTVAAPSVFIFPPSDEQLKSGTASVVCLLNNFYPREAKVQWKVDNALQSGNSQESVTEQDSKDSTYSLSSTLTLSKADYEKHKVYACEVTHQGLSSPVTKSFNRGEC | 0.74 ratio | 111 relative binding, GpH7-A5/GpH7-B3/GpL16-k0 = 100 | 82.8 relative binding, GpH7-A5/GpH7-B3/GpL16-k0 = 100 |  |  |  |  |  |  |  | 
GpH7-A5/GpH7-B3 variant H268_05P/GpL16-k0 (antibody, human IgG1, kappa, Heterodimerized antibody (He Ab) with the mutation in only one H chain; also called He Ab H268P) heavy 1: not shown heavy 2: not shown light: DIVMTQSPLSLPVTPGEPASISCQASESLVHSNRNTYLHWYLQKPGQSPQLLIYKVSNRFSGVPDRFSGSGSGTDFTLKISRVEAEDVGVYYCSQNTHVPPTFGQGTKVEIERTVAAPSVFIFPPSDEQLKSGTASVVCLLNNFYPREAKVQWKVDNALQSGNSQESVTEQDSKDSTYSLSSTLTLSKADYEKHKVYACEVTHQGLSSPVTKSFNRGEC | 0.66 ratio | 116 relative binding, GpH7-A5/GpH7-B3/GpL16-k0 = 100 | 76.4 relative binding, GpH7-A5/GpH7-B3/GpL16-k0 = 100 |  |  |  |  |  |  |  | 

Further lines, results first:

He_3a/2b (IIIa/IIb) [1] | He/Con_2b [2] | He/Con_3a [3] | relative KD [4] | relative KD [5] | relative KD [6] | relative KD [7] | relative KD [8] | relative KD [9] | relative KD [10] | relative KD [11] | Binder
0.73 ratio | 167 relative binding, GpH7-A5/GpH7-B3/GpL16-k0 = 100 | 122 relative binding, GpH7-A5/GpH7-B3/GpL16-k0 = 100 |  |  |  |  |  |  |  |  | GpH7-A5/GpH7-B3 variant H268_02A/GpL16-k0 (antibody, human IgG1, kappa, Heterodimerized antibody (He Ab) with the mutation in only one H chain; also called He Ab H268A) heavy 1: not shown heavy 2: not shown light: DIVMTQSPLSLPVTPGEPASISCQASESLVHSNRNTYLHWYLQKPGQSPQLLIYKVSNRFSGVPDRFSGSGSGTDFTLKISRVEAEDVGVYYCSQNTHVPPTFGQGTKVEIERTVAAPSVFIFPPSDEQLKSGTASVVCLLNNFYPREAKVQWKVDNALQSGNSQESVTEQDSKDSTYSLSSTLTLSKADYEKHKVYACEVTHQGLSSPVTKSFNRGEC
 |  |  | 0.5 ratio | 0.4 ratio | 0.2 ratio | 1.2 ratio | 1.3 ratio | 0.2 ratio | 1.2 ratio | 1.3 ratio | H240-Kn061/H240-Hl071/L73-k0 variant with Y235V in H240-Kn061 (antibody, human IgG1, kappa, anti-epiregulin heterodimerized IgG1; also called H240-Kn061 Y235V) heavy 1: QDQLVQSGAEVKKPGASVKVSCKASGFNIKDTYIQWVRQAPGQGLEWMGRIDPLRKQTKYREKFEGRVTITADTSTNTAYMELSSLRSEDTAVYYCVRSGREFDYWGQGTLVTVSSASTKGPSVFPLAPSSKSTSGGTAALGCLVKDYFPEPVTVSWNSGALTSGVHTFPAVLQSSGLYSLSSVVTVPSSSLGTQTYICNVNHKPSNTKVDKKVEPKSCDKTHTCPPCPAPEYVWGPSVFLFPPKPKDTLMISRTPEVTCVVVDVSDEDPEVKFNWYVDGVEVHNAKTKPREEQYNATYRVVSVLTVLHQDWLNGKEYKCKVSNKALPAPIEKTISKAKGQPREPQVCTLPPSRDELTKNQVSLWCLVKGFYPSDIAVEWESNGQPENNYKTTPPVLDSDGSFFLYSKLTVDKSRWQQGNVFSCSVMHEALHNHYTQKSLSLSP heavy 2: QDQLVQSGAEVKKPGASVKVSCKASGFNIKDTYIQWVRQAPGQGLEWMGRIDPLRKQTKYREKFEGRVTITADTSTNTAYMELSSLRSEDTAVYYCVRSGREFDYWGQGTLVTVSSASTKGPSVFPLAPSSKSTSGGTAALGCLVKDYFPEPVTVSWNSGALTSGVHTFPAVLQSSGLYSLSSVVTVPSSSLGTQTYICNVNHKPSNTKVDKKVEPKSCDKTHTCPPCPAPELLGGPSVFLFPPKPKDTLMISRTPEVTCVVVDVSHEDPEVKFNWYVDGVEVHNAKTKPREEQYNSTYRVVSVLTVLHQDWLNGKEYKCKVSNDALPMPIEETISKAKGQPREPQVYTLPPSRCELTKNQVSLSCAVKGFYPSDIAVEWESNGQPENNYKTTPPVLDSDGSFFLVSKLTVDKSRWQQGNVFSCSVMHEALHNHYTQKSLSLSP light: DIQMTQSPSSLSASVGDRVTITCRASQDIHKYIAWYQQKPGQAPRLLIQYTSTLQPGVPSRFSGSGSGTDYTFTISSLQPEDIATYYCLQYEQLRTFGGGTKVEIKRTVAAPSVFIFPPSDEQLKSGTASVVCLLNNFYPREAKVQWKVDNALQSGNSQESVTEQDSKDSTYSLSSTLTLSKADYEKHKVYACEVTHQGLSSPVTKSFNRGEC
